As usually defined, the Kd is the equilibrium constant for the complex coming apart. Lower therefore signals a tighter complex. Usually koff stands for the rate constant with which the complex falls apart. The low end stands for slow dissociation, the high end for fast dissociation. Usually kon stands for the second-order rate constant of association. Low readings indicate slow association, high ones fast association.

This note sets out measurements from US20200199244A1 (published 2020).

One test deals with T1, Macaca fascicularis CD40 (Macaca fascicularis (cynomolgus monkey), UniProt P25942 21-277 (human entry)).
T1 chain: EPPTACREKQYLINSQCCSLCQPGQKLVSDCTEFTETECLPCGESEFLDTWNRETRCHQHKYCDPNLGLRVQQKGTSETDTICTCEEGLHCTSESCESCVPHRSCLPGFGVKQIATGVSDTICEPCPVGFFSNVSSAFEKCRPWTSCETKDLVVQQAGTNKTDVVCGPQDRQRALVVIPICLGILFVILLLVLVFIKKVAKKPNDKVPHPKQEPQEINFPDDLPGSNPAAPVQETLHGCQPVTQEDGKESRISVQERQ
In words: cell-based or functional assay.

The next test concerns the target human CD40 (human, UniProt P25942 21-277). In words: cell-based or functional assay.
Test [1] deals with T2, biotinylated human CD40 (BMS) (human, UniProt P25942 21-193, limits assumed, biotinylated (sites not given)).
T2 construct: Ligand immobilised on the streptavidin BIAcore chip
Put plainly: BIAcore SPR, immobilised biotinylated human CD40, 1:1 fit. (Surface plasmon resonance follows binding to a sensor surface in real time, without labels.)
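Throughout, for Kd: dAbs passed as doubling dilutions over CD40 chip at 25 °C in HBS-EP running buffer, 300 s dissociation, traces double-referenced against blank flow cell and buffer injection, global Langmuir fit.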
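Throughout, for koff: dAbs passed as doubling dilutions over CD40 chip at 25 °C in HBS-EP running buffer, 300 s dissociation, traces double-referenced against blank flow cell and buffer injection, global Langmuir fit.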
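Throughout, for kon: dAbs passed as doubling dilutions over CD40 chip at 25 °C in HBS-EP running buffer, 300 s dissociation, traces double-referenced against blank flow cell and buffer injection, global Langmuir fit.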

B1: BMS3h-274 (other)
VH: EVQLLESGGGLVQPGGSLRLSCAASGFTFDSYAMGWARQAPGKGLEWVSAIGAKGLSTYYADSVKGRFTISRDNSKNTLYLQMNSLRAEDTAVYYCAKAARGKFDYWGQGTLVTVSS
As for B1, the “hIZCD40L-driven Cyno B Cell Proliferation EC50” value with Macaca fascicularis CD40 is greater than 7000 nM.

B2: BMS3h-193-25 (other)
VL: DIQMTQSPSSLSASVGDRVTITCRASQTIERRLNWYQQKPGKAPRLLIYLATRLQSGVPSRFSGSGSGTDFTLTISSLQPEDFATYYCHQYESPPLTFGQGTKVEIKR
With B2, in the test with Macaca fascicularis CD40, the “hIZCD40L-driven Cyno B Cell Proliferation EC50” value stood at 2200 nM. Moreover, the “hIZCD40L-driven Human B Cell Proliferation EC50” value in the test with human CD40 worked out at 303 nM.

B3: BMS3h-217-1 (other)
VL: NIQMTQSPSSLSASVGDRVTITCRASHFIGTLLTWYQHKPGKAPKLLITYGSLLQSGVPSRFSGSGSGTDFTLTISSLQPEDFATYYCGQGVLWPATFGQGTKVEIKR
B3: in the test with Macaca fascicularis CD40, the “hIZCD40L-driven Cyno B Cell Proliferation EC50” value is 35 nM. The “hIZCD40L-driven Human B Cell Proliferation EC50” value with human CD40 is 45 nM.

B4: BMS3h-217-15 (other)
VL: DIQMTQSPSSLYASVGDRVTITCRVSHFIGTLLSWYQQKPGKAPKLLITYGSLLQSGVPSRFSGSGSGTDFTLSISSLQPEDFATYYCGQGVLWPPTFGQGTKVEIKQ
On to B4, for which, in the test with Macaca fascicularis CD40, the “hIZCD40L-driven Cyno B Cell Proliferation EC50” value was 20 nM. Also, the “hIZCD40L-driven Human B Cell Proliferation EC50” value in the test with human CD40 is 47 nM.

B5: BMS3h-217-14 (other)
VL: DIQLTQSPSSLSASVGDRVTITCRASHFIGTLLSWYQQKPGKATKLLITYGSLLQSGVPSRFSGSGSGTDFTLTISSLQPEDFATYYCGQGVLWPPTFGQGTKVEIKR
As for B5, the “hIZCD40L-driven Cyno B Cell Proliferation EC50” value in the test with Macaca fascicularis CD40 amounted to 8 nM. Further, the “hIZCD40L-driven Human B Cell Proliferation EC50” value in the test with human CD40 was determined as 26 nM.

B6: BMS3h-217-16 (other)
VL: DIQMTQSPSSLSASVGDRVTITCRASHFIGTLLSWYQQKPRKAPKLLITYGSLLQSGVPSRFSGSGSGTDFTLTISSLQPEDFATYYCGQGVLWPPTFGQGTKVEIKR
As for B6, the “hIZCD40L-driven Cyno B Cell Proliferation EC50” value in the test with Macaca fascicularis CD40 worked out at 7 nM. In the test with human CD40, the “CHO-hCD40L-driven DC Activation IL-12 EC50” value amounted to 1120 nM and the “hIZCD40L-driven Human B Cell Proliferation EC50” value worked out at 5 nM.

B7: BMS3h-217-6 (other)
VL: DIQMTQSPSSLSASVGDRVTITCRASHFIGTLLSWYQQKPGKATKLLITYGSLLQSGVPSRFSGSGSGTDFTLTISSLQPEDFATYYCGQGVLWPPTFGQGTKVEIKR
Regarding B7, in the test with Macaca fascicularis CD40, the “hIZCD40L-driven Cyno B Cell Proliferation EC50” value turned out to be 10 nM. The “hIZCD40L-driven Human B Cell Proliferation EC50” value with human CD40 stood at 11 nM.

B8: BMS3h-217-5 (other)
VL: DIQMTQSPSFLSASVGDRVTITCRASHFIATLLSWYQQKPGKAPKLLITYGSLLQSGVPSRFSGSGSGTDFTLTISSLQPEDFATYYCGQGVLWPPTFGQGTKVEIKR
For the molecule B8, the “hIZCD40L-driven Cyno B Cell Proliferation EC50” value with Macaca fascicularis CD40 is 15 nM.

B9: BMS3h-217-4 (other)
VL: DIQMTQSPSSLSASVGDRVTITCRASHFIATLLSWYQQKPGKAPKLLITYGSLLQSGVPSRFSGSGSGTDFTLTISSLQPEDFATYYCGQGVLWPPTFGQGTKVEIKR
For the molecule B9, the “hIZCD40L-driven Cyno B Cell Proliferation EC50” value in the test with Macaca fascicularis CD40 was 27 nM.

B10: BMS3h-217-8 (other)
VL: DIQMTQSPSSLSASVGDRVTITCRASHFIGTLLSWYQHKPGKAPKLLITYGSLLQSGVPSRFSGSGSGTDFTLTISSLQPEDFATYYCGQGVLWPATFGQGTKVEIKR
Consider B10, for which the “hIZCD40L-driven Cyno B Cell Proliferation EC50” value with Macaca fascicularis CD40 was 14 nM. The “hIZCD40L-driven Human B Cell Proliferation EC50” value with human CD40 was 33 nM.

B11: BMS3h-217-2 (other)
VL: DIQMTQSPSSLSASVGDRVTITCRASHFIGTLLSWYQQKPRKAPKLLITYGSLLQSGVPSRFSGSGSGTDFTLTISSLHPEDFATYYCGQGVLWPPTFGQGTKVEIKR
In the case of B11, the “hIZCD40L-driven Cyno B Cell Proliferation EC50” value with Macaca fascicularis CD40 was 7 nM. In the test with human CD40, the “CHO-hCD40L-driven DC Activation IL-12 EC50” value was 335 nM and the “hIZCD40L-driven Human B Cell Proliferation EC50” value was 8 nM.

B12: BMS3h-202 (other)
VH: EVQLLESGGGLVQPGGSLRLSCAASGFTFPTAEMVWVRQAPGKGLEWVSSISASGGSTYYADSVKGRFTISRDNSKNTLYLQMNSLRAEDTAVYYCAKEPVSYVATFDYWGQGTLVTVSS
For B12, the “hIZCD40L-driven Cyno B Cell Proliferation EC50” value with Macaca fascicularis CD40 is greater than 7000 nM. Moreover, in the test with human CD40, the “hIZCD40L-driven Human B Cell Proliferation EC50” value worked out at 6400 nM.

B13: BMS3h-202-1 (other)
VH: EVQLLESGGGLVQPGGSLRLSCAASGFTFPTAEMLWVRKAPGKGLEWVSSISASGGSTYYADSVKGRFTISRDNSKNTLYLQMNSLRAEDTAVYYCAKEPVSYVATFDYWGQGTLVTVSS
Regarding B13, the “hIZCD40L-driven Cyno B Cell Proliferation EC50” value in the test with Macaca fascicularis CD40 was greater than 7000 nM. Moreover, the “hIZCD40L-driven Human B Cell Proliferation EC50” value in the test with human CD40 was 192 nM.

B14: BMS3h-202 (other)
VH: EVQLLESGGGLVQPGGSLRLSCAASGFTFPTAEMVWVRQAPGKGLEWVSSISASGGSTYYADSVKGRFTISRDNSKNTLYLQMNSLRAEDTAVYYCAKEPVSYVATFDYWGQGTLVTVSS
notes: domain antibody (dAb): single human VH domain
In test [1], B14 displayed a Kd of 2000 nM, a koff of 0.0035 s⁻¹ and an on-rate (kon) of 1700 M⁻¹ s⁻¹.

B15: BMS3h-107 (other)
VH: EVQLLESGGGLVQPGGSLRLSCAASGFTFSGYDMQWVRQAPGKGLEWVSTISASGVFTYYADSVKGRFTTSRDNSKNTLYLQMNSLRAEDTAVYYCAKYPNRFALNNFDYWGQGTLVTVSS
notes: as for B14
In test [1], B15 yielded a Kd of 850 nM, a koff of 0.17 s⁻¹ and a kon of 200000 M⁻¹ s⁻¹.

B16: BMS3h-43 (other)
VH: EVQLLESGGGLVQPGGSLRLSCTASGFTFNMYEMSWVRQAPGKGLEWVSGISRRGFTTYYADSVKGRFTISRDNSKNTLYLQMNSLRAEDTAVYYCAKEPITYAMRYARFDYWGQGTLVTVSS
notes: as for B14
As to B16, in test [1], the Kd was 2100 nM, the koff turned out to be 0.0031 s⁻¹ and the kon stood at 1400 M⁻¹ s⁻¹.

B17: BMS3h-198 (other)
VH: EVQLLESGGGLVQPGGSLRLSCAASGFTFAGYEMWWVRQAPGKGLERVSAISGSGGSTYYADSVKGRFTISRDDSKNTLYLQMNSLRAEDTAVYYCAKDPYSFDYWGQGTLVTVSS
In the case of B17, the “hIZCD40L-driven Cyno B Cell Proliferation EC50” value with Macaca fascicularis CD40 is greater than 7000 nM. In addition, the “hIZCD40L-driven Human B Cell Proliferation EC50” value in the test with human CD40 amounted to 554 nM.

B18: BMS3h-106 (other)
VH: EVQLLESGGGLVQPGGSLRLSCAASGFTFSTYHMQWVRQAPGKGLEWVSMIDADGLGTYYADSVKGRFTISRDNSKNTLYLQMNSLRAEDTAVYYCAKPGPQFGQFDYWGQGTLVTVSS
notes: as for B14
B18: in test [1], the Kd worked out at 350 nM, the koff stood at 0.046 s⁻¹ and the kon was determined as 130000 M⁻¹ s⁻¹.

B19: BMS3h-197 (other)
VH: EVQLLESGGGLVQPGGSLRLSCAASGFTFGSAAMDWVRQAPGKGLEWVSSINDMGSNTYYADSVKGRFTISRDNSKNTLYLQMNSLRAEDTAVYYCAKQGGRFDYWGQGTLVTVSS
notes: as for B14
Turning to B19, in test [1], the Kd amounted to 180 nM, the koff came out at 0.014 s⁻¹ and the kon is 81000 M⁻¹ s⁻¹.

B20: BMS3h-131 (other)
VL: DIQMTQSPSSLSASVGDRVTITCRANSSILWALAWYQQKPGKAPKLLIESSSGLQSGVPSRFSGSGSGTDFTLTISSLQPEDFATYYCVQNAGWPGTFGQGTKVEIKR
notes: domain antibody (dAb): single human V kappa domain
In test [1], B20 came in with a Kd of 930 nM, a koff of 0.022 s⁻¹ and a kon of 24000 M⁻¹ s⁻¹.
